Reference: patent US20250074980A1 (BRIGHAM AND WOMEN S HOSPITAL, published 2025)
Positions count from the first letter of the chain named. Names may count otherwise.

T1: CEACAM6 on transfected HeLa cells (human, UniProt P40199 35-320)
T1 construct: whole, on cells; also called HeLa-CEACAM6; HeLa C6
T1 sequence (looked up): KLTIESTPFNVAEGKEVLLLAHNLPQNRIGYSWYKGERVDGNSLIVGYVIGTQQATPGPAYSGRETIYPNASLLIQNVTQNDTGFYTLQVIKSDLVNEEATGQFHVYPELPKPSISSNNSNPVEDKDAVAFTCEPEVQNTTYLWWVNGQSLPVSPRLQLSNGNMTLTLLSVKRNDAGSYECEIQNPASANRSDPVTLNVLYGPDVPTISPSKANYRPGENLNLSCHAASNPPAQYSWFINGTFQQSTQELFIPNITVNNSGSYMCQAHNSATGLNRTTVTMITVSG

T2: CEACAM8 on transfected HeLa cells (human, UniProt P31997 35-320)
T2 construct: whole, on cells; also called HeLa-CEACAM8; HeLa C8
T2 sequence (looked up): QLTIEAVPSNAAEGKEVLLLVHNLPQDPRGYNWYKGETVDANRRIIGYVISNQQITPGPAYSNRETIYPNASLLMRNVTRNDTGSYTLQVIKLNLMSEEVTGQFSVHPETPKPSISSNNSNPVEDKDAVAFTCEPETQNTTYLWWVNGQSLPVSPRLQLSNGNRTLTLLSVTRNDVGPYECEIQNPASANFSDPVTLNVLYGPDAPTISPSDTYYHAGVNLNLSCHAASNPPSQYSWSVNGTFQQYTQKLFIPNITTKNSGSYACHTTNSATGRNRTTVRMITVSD

T3: CEACAM3 on transfected HeLa cells (human, UniProt P40198 35-252)
T3 construct: whole, on cells; also called HeLa-CEACAM3; HeLa C3
T3 sequence (looked up): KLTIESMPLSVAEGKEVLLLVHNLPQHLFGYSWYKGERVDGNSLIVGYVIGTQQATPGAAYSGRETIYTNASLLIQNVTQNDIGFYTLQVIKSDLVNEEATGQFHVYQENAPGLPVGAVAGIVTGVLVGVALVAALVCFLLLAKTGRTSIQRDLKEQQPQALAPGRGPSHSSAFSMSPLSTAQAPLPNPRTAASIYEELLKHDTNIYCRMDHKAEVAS

T4: His-tagged CEACAM1 (human, UniProt P13688 35-428)
T4 construct: 45 kDa SPR analyte; also called CEACAM1-HIS; CEACAM1 analyte
T4 sequence: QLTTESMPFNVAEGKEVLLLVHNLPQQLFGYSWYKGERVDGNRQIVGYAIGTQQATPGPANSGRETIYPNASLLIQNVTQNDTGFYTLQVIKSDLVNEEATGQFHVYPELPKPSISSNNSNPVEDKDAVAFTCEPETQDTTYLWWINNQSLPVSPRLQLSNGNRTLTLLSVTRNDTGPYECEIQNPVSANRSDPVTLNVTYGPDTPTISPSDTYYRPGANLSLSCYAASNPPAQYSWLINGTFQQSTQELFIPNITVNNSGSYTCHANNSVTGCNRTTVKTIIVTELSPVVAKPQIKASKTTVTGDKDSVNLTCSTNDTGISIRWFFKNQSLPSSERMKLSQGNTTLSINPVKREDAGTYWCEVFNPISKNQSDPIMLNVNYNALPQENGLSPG

B1: VH1/Vκ1 (antibody, IgG4, V domains shown)
VH: EVQLLESGGGLVQPGGSLRLSCAASGFIFSSHGMSWVRQAPGKGLEWVATISSGGTYTYYPDSVKGRFTISRDNSKNTLYLQMNSLKAEDTAMYYCARHDFDYDAAWFAYWGQGTLVTVSS
VL: QIVLTQSPALLSLSPGERATMSCSANSSVSYMYWYRQKPGQAPKPWIYLTSNLASGVPARFSGSGSGTDYTLTISSLEAEDFATYYCQQWSSNPPTFGQGTKLEIK
notes: IgG4 (S241P), kappa
B2: VH3/Vκ1 (antibody, IgG4, V domains shown)
VH: B1 VH with P61A, K87R
VL: B1 VL
notes: IgG4 (S241P), kappa
B3: VH2/Vκ2 (antibody, IgG4, V domains shown)
VH: B1 VH with K87R
VL: B1 VL with Q1E, L10T, M21L, S24R, R36Q, K44R, L53R, S55T, A79P
notes: IgG4 (S241P), kappa
B4: VH4/Vκ2 (antibody, IgG4, V domains shown)
VH: B1 VH with A49S, P61A, K87R, M93V
VL: B1 VL with Q1E, L10T, M21L, S24R, R36Q, K44R, L53R, S55T, A79P
notes: IgG4 (S241P), kappa
B5: VH1/Vκ11 (antibody, IgG4, V domains shown)
VH: B1 VH
VL: EIVLTQSPATLSLSPGERATLSCRANSSVSYMYWYQQKPGQAPRPWIYLTSNRATGIPARFSGSGSGTDYTLTISSLEPEDFAVYYCQQWSSNPPTFGQGTKLEIK
notes: IgG4 (S241P), kappa
B6: VH3/Vκ4 (antibody, IgG4, V domains shown)
VH: B1 VH with P61A, K87R
VL: B5 VL with V84T
notes: IgG4 (S241P), kappa
B7: VH2/Vκ1 (antibody, IgG4, V domains shown)
VH: B1 VH with K87R
VL: B1 VL
notes: IgG4 (S241P), kappa
B8: VH1/Vκ4 (antibody, IgG4, V domains shown)
VH: B1 VH
VL: B5 VL with V84T
notes: IgG4 (S241P), kappa
B9: VH3/Vκ2 (antibody, IgG4, V domains shown)
VH: B1 VH with P61A, K87R
VL: B5 VL with I57V, V84T
notes: IgG4 (S241P), kappa
B10: VH4/Vκ1 (antibody, IgG4, V domains shown)
VH: B1 VH with A49S, P61A, K87R, M93V
VL: B1 VL
notes: IgG4 (S241P), kappa
B11: VH1/Vκ2 (antibody, IgG4, V domains shown)
VH: B1 VH
VL: B5 VL with I57V, V84T
notes: IgG4 (S241P), kappa
B12: VH4/Vκ4 (antibody, IgG4, V domains shown)
VH: B1 VH with A49S, P61A, K87R, M93V
VL: B5 VL with V84T
notes: IgG4 (S241P), kappa
B13: VH2/Vκ4 (antibody, IgG4, V domains shown)
VH: B1 VH with K87R
VL: B5 VL with V84T
notes: IgG4 (S241P), kappa

How the values were obtained:
[1] = biological target: T1, CEACAM6 on transfected HeLa cells; assay: flow cytometry, HeLa-CEACAM6 transfectants, % positive cells
Experimental: Binding selectivity for CEACAM1 was tested for the 24 humanized antibody variants that bound to CEACAM1 (see Table 3), as well as the chimeric control antibody VH0/Vκ0, by flow cytometry on HeLa cells transfected with CEACAM1, 3, 5, 6 and 8. […] There was no evidence of any staining of the HeLa-CEACAM3 or HeLa-CEACAM8 transfectants. […] Due to its favorable affinity to and selectivity for CEACAM1 as well as its favorable expression level, VH1/Vκ8 was chosen as the framework for affinity maturation.

[2] = biological target: T2, CEACAM8 on transfected HeLa cells; assay: flow cytometry, transfected HeLa
Summary of the method: (§1)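 Binding selectivity was assessed by flow cytometry and is expressed as the staining of each HeLa transfectant, each stably carrying a single CEACAM family member. The cells were kept at 37° C, 5.0% CO₂ in DMEM containing 10% fetal bovine serum. Staining used the test antibody followed by a fluorochrome-conjugated isotype-specific secondary antibody, and DAPI marked viability.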

[3] = biological target: T3, CEACAM3 on transfected HeLa cells; assay: flow cytometry, transfected HeLa
Summary of the method: as §1

His-tagged CEACAM1 [4] = biological target: T4, His-tagged CEACAM1; assay: SPR single-cycle, IgG captured
Experimental: (§2) As an alternative approach to assess the binding of the 36 antibody combinations and the three control antibodies to CEACAM1, a kinetic analysis was performed on a Biacore T200 (serial no. 1909913) running Biacore T200 Evaluation Software V2.0.1 (Uppsala, Sweden). All experiments were run at 25° C. with HBS-P+ running buffer (pH 7.4) (GE Healthcare, cat. no. BR100671). All kinetic experiments were performed using His-tagged CEACAM1 as the analyte. For all experiments, antibodies were immobilized onto a Series S Protein A sensor chip surface. For kinetic experiments, the amount of immobilized/captured ligand was limited to avoid mass transfer effects at the surface of the chip with the surface ideally having an analyte binding level (Rₘₐₓ) of 50-150 RUs. Using a MW of 45 kDa for the CEACAM1 analyte, 150 kDa for the antibody ligand (estimated value for IgG), 50 RU for Rmax and the stoichiometry (Sm) as 2 due to the ability of each antibody to bind 2 target molecules, a target response level of ˜75 RUs was set for capture of all the sample antibodies.
Single cycle analysis of the 36 antibody combinations and the three control antibodies was performed on purified antibodies (Vκ1 to Vκ6 variants) or on the supernatants of the transiently transfected HEK EBNA cells (Vκ7 to Vκ12 variants). In some instances, where supernatant was not available, purified chimeric antibody VH0/Vκ0 was spiked into HEK EBNA culture medium to use as a positive control. Antibodies were diluted in HBS-P+ to a concentration of 1 μg/ml (as determined by an IgG quantitation ELISA). At the start of each cycle, antibodies were loaded onto Fc2, Fc3 and Fc4 of a protein A chip and IgG captured at a flow rate of 8 μl/min to give an RU of ˜75. The surface was then allowed to stabilize. Single cycle kinetic data was obtained at a flow rate of 50 μl/min to minimize any potential mass transfer effects. Multiple repeats of the chimeric antibody VH0/Vκ0 were performed to check the stability of the surface and analyte over the kinetic cycles. The signal from the reference channel Fc1 (no antibody) was subtracted from that of Fc2, Fc3 and Fc4 to correct for differences in non-specific binding to a reference surface. A 5 point 2-fold dilution range from 3.125 to 50 nM CEACAM1 without regeneration between each concentration was used.

His-tagged CEACAM1 [5] = biological target: T4, His-tagged CEACAM1; assay: SPR multi-cycle, IgG captured
Experimental: as §2
The signal from the reference channel Fc1 was subtracted from that of Fc2, Fc3 and Fc4 to correct for differences in non-specific binding to a reference surface, a global Rmax parameter was used in the 1-to-1 binding model. The relative Kp compared to […] was calculated by dividing the Kp of the humanized CEACAM antibody variants by that of the chimeric antibody VH0/Vκ0 on the same chip. A summary of the averaged relative Kp obtained for the 12 antibody combinations analyzed using multi cycle kinetics can be found in Table 5.

| Binder | binding result [1] | binding result [2] | binding result [3] | Kd (His-tagged CEACAM1 [4]) [nM] | relative KD to VH0/Vκ0 (His-tagged CEACAM1 [4]) | Kd (His-tagged CEACAM1 [5]) [nM] | average relative KD to VH0/Vκ0 (His-tagged CEACAM1 [5]) | koff (His-tagged CEACAM1 [5]) [s⁻¹] | kon (His-tagged CEACAM1 [5]) [M⁻¹ s⁻¹] | relative KD to VH0/Vκ0 (His-tagged CEACAM1 [5]) |
| --- | --- | --- | --- | --- | --- | --- | --- | --- | --- | --- |
| B1 | no binding | no binding | no binding | 85 | 2 |  |  |  |  |  |
| B2 | no binding | no binding | no binding | 135 | 3.2 |  |  |  |  |  |
| B3 | no binding | no binding | no binding | 98 | 2.3 |  |  |  |  |  |
| B4 | no binding | no binding | no binding | 74 | 1.8 |  |  |  |  |  |
| B5 | no binding | no binding | no binding | 143 | 3.5 |  |  |  |  |  |
| B6 | no binding | no binding | no binding | 81 | 1.9 |  |  |  |  |  |
| B7 | no binding | no binding | no binding | 113 | 2.7 |  |  |  |  |  |
| B8 | no binding | no binding | no binding | 131 | 3.1 |  |  |  |  |  |
| B9 | no binding | no binding | no binding | 103 | 2.5 |  |  |  |  |  |
| B10 | no binding | no binding | no binding | 99 | 2.4 |  |  |  |  |  |
| B11 | no binding | no binding | no binding | 134 | 3.2 | 190 | 3.4 | 0.0503 | 265000 | 3.4 |
| B12 | no binding | no binding | no binding | 120 | 2.9 |  |  |  |  |  |
| B13 | no binding | no binding | no binding | 103 | 2.5 |  |  |  |  |  |
